Reference: patent publication US20110182817A1 (NATIONAL UNIVERSITY CORPORATION OKAYAMA UNIVERSITY, published 2011)

B1: CL48-139 (antibody, IgM, V domains shown)
VH: EGQLQQSGAEVVKPGASVKLSCTASGFNIKDTYIHWVKQRPEQGLEWIGRIDPTNGNTKYDPEFQGKATITADTSSNTAYLHLSGLTSEDTAVYYCAKGTLFAYWGQGTLVTVSA
VL: DIKMTQSPSSMYASLGERVTFTCKASQDINNYLTWVQQKPGKSPKTLIYRANRLVDGVPSRFSGSGSGQDYSLTISSLEYEDMGIYYCLQYDEFPPTFGGGTKLEIK
notes: Mouse monoclonal IgM, kappa, from mice immunized with arteriosclerotic plaque homogenate
B2: CL56-369 (antibody, IgM, V domains shown)
VH: QVQLQQPGAELVKPGASVKLSCKASGYTFTSYWMHWVKQRPGQGLEWIGEIDPSDSYTNYNQKFKGKATLTVDKSSSTAYMQLSSLTSEDSAVYYCARGDMDAMDYWGQGTSVTVSS
VL: ETTVTQSPASLSMAIGEKVTIRCITSTDIDDDMNWYQQKPGEPPKLLISEGNTLRPGVPSRFSSSGYGTDFVFTIENMLSEDVADYYCLQSDNLPLTFGAGTKLELK
notes: as for B1

Target: T1, human LDL oxidatively modified by copper sulfate (human, UniProt P04114 28-4563, limits assumed, oxidatively modified by copper sulfate)
T1 construct: Lipoprotein particle; also called oxidized LDL
T1 sequence (P04114 28-4563 limits assumed): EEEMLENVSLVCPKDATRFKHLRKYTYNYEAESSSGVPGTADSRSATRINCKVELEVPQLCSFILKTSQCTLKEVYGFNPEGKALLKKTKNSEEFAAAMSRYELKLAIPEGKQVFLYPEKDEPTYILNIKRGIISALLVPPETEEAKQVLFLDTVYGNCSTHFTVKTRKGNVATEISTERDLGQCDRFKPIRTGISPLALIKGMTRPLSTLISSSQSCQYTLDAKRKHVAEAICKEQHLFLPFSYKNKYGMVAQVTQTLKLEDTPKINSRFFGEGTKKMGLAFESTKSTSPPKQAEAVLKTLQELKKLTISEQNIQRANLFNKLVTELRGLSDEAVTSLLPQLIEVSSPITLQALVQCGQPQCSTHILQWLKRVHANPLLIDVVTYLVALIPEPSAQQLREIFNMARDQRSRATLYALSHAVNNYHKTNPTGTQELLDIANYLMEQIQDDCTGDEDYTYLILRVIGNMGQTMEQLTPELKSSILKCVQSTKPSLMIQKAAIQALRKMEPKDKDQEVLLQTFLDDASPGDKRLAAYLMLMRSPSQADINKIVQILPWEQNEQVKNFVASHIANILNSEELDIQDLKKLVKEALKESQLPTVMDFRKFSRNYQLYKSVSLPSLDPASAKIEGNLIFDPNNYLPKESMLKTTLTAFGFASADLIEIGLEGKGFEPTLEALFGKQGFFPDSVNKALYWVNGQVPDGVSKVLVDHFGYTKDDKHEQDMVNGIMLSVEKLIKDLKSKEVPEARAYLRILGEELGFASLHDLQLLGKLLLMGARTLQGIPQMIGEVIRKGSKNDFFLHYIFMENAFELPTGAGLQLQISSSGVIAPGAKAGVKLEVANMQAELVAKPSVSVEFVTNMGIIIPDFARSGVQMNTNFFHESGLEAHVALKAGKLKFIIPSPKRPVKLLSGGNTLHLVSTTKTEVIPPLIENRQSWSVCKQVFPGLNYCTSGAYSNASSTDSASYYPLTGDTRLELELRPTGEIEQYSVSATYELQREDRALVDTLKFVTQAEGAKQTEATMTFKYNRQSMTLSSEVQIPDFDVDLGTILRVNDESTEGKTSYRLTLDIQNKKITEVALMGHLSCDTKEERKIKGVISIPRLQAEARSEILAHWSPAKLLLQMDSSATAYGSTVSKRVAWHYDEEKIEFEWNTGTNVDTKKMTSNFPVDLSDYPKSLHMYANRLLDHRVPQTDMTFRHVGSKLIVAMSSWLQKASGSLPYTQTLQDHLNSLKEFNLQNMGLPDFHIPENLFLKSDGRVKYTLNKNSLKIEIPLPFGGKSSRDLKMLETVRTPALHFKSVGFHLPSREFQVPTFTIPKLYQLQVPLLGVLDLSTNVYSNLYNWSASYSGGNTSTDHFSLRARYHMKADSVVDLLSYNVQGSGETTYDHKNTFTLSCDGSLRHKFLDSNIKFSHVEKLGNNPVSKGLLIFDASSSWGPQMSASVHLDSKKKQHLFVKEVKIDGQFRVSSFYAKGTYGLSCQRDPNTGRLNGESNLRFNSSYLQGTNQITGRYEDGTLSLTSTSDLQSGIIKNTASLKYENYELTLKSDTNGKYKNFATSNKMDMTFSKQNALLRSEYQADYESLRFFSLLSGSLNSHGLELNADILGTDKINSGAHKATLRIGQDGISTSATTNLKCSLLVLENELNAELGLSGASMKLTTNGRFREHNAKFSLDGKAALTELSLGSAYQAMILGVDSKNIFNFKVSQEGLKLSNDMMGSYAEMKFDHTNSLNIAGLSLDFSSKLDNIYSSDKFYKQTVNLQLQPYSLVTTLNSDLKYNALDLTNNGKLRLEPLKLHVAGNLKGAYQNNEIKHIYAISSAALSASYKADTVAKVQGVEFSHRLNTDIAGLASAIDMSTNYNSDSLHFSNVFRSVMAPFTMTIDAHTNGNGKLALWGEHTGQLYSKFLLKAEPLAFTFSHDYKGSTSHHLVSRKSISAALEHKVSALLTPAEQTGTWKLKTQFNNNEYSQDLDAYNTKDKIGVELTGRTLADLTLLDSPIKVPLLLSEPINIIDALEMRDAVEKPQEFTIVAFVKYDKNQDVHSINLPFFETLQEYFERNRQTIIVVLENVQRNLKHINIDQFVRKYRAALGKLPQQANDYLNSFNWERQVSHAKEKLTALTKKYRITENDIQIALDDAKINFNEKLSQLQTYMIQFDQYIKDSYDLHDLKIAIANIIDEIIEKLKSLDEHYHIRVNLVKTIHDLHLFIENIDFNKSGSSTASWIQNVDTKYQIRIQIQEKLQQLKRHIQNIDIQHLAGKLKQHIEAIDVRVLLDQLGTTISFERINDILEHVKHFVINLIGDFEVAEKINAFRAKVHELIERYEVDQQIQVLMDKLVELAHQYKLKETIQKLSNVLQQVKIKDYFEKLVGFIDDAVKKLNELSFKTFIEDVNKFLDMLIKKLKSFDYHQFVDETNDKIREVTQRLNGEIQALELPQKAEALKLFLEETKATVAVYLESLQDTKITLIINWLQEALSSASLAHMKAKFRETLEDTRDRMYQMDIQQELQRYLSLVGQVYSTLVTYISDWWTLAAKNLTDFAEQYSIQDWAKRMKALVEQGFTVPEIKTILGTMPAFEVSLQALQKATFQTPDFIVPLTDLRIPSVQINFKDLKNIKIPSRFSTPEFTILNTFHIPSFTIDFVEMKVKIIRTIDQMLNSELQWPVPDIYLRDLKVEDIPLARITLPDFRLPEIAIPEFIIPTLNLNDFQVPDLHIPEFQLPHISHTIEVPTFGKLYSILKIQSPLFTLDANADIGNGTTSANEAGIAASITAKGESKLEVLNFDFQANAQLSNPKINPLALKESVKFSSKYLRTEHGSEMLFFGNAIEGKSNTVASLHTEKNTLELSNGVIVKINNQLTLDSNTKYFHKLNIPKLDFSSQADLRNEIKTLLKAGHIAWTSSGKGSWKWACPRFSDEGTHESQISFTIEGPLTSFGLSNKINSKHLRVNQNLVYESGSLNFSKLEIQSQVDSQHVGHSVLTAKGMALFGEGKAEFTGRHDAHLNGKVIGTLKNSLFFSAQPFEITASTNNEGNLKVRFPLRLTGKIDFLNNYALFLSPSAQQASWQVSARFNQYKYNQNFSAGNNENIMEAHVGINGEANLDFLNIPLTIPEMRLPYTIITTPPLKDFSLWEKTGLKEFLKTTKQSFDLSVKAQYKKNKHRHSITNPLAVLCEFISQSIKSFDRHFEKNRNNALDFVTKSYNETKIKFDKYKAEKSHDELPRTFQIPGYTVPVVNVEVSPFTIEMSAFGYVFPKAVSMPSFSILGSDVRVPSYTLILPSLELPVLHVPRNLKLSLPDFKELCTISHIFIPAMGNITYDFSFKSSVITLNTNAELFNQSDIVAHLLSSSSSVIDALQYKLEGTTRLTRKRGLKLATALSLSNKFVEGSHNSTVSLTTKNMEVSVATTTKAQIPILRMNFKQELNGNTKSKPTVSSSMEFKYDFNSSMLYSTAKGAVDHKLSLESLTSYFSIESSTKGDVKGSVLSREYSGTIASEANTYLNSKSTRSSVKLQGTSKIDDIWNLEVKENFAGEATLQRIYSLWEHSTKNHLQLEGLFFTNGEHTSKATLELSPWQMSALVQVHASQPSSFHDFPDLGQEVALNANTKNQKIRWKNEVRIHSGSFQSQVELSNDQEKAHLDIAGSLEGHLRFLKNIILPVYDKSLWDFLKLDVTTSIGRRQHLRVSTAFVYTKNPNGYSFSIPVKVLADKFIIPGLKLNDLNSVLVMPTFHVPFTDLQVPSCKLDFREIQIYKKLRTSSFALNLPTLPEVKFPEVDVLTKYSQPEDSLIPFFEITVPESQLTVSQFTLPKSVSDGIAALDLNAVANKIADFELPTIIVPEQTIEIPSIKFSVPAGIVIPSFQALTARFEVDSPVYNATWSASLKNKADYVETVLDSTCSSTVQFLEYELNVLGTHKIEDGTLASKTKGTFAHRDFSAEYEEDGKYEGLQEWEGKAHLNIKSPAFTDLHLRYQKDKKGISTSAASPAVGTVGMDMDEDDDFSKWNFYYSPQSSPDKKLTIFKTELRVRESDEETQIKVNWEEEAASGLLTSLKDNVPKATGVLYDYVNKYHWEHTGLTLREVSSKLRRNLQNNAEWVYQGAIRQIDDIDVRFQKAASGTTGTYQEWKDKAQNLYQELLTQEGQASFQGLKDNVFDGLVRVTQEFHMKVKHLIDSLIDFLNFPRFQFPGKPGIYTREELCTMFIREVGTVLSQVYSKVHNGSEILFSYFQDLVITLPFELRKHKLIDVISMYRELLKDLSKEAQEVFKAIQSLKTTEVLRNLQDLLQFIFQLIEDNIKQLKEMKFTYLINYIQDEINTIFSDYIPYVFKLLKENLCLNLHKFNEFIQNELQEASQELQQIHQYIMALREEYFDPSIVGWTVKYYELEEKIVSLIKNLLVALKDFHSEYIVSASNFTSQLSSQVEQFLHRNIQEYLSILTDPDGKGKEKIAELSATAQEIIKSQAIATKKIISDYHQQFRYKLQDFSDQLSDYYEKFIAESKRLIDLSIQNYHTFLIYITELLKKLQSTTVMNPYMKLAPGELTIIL
Experiment: ELISA on immobilized Cu-oxidized human LDL, anti-mouse IgM-HRP
Experimental: 50 μl of […] human LDL oxidatively modified by copper sulfate was added to each well of 96-well microtiter plates (Immulon-2), and incubated at 4° C. overnight. After washing with PBS-Tween, the plates were blocked with 0.5% BSA-PBS. Test samples (culture supernatants appropriately diluted with PBS containing 0.1% BSA) were incubated in the plates at room temperature for one hour. After the plates were washed three times with PBS-Tween, an HRP-labeled anti-mouse IgM antibody was incubated in the plates at room temperature for one hour. After the plates were washed three times with PBS-Tween, 0.03% H₂O₂ and 0.1 M citrate buffer […] containing 0.4 mg/ml orthophenylenediamine (OPD) were added to the plates. After ten minutes of incubation, the reaction was stopped by adding an equal volume of 2N H₂SO₄. Absorbance was measured at 490 nm (FIG. 2). FIG. 2 is a graph showing the reactivities of monoclonal antibodies to NLO and oxidized LDL. The monoclonal antibodies were produced by hybridomas of the established five clones.

| Binder | binding result |
| --- | --- |
| B1 | no binding |
| B2 | no binding |
